Key:
[1] = cycloheximide chase, western blot; conditions: glycan lost; control: NRP1-WT
[2] = confocal, EEA1/Rab7 co-localisation, 10% FBS medium; conditions: glycan lost; control: NRP1-WT
[3] = confocal, HT29 NRP1-WT cells, 24 h treatment; conditions: control: DMSO
[4] = confocal, HGF-stimulated endocytosis after serum starvation; conditions: glycan lost; control: NRP1-WT
[5] = confocal, β1-integrin co-internalisation with NRP1, HT29; conditions: glycan lost; control: NRP1-WT
[6] = confocal, surface delivery; 24 h transient or serum-free; conditions: glycan lost; control: NRP1-WT
[7] = confocal, Met co-internalisation with NRP1, HT29; conditions: glycan lost; control: NRP1-WT

Substance	degradation_or_half_life [1]	localisation_or_trafficking [2]	localisation_or_trafficking ([3]; glycan changed form)	localisation_or_trafficking [4]	localisation_or_trafficking ([3]; glycan lost)	localisation_or_trafficking [5]	localisation_or_trafficking [6]	localisation_or_trafficking [7]
Neuropilin-1 (NRP1): N150Q/N261Q	increases	changes						
Neuropilin-1 (NRP1): swainsonine			changes					
Neuropilin-1 (NRP1): N842Q	no change	no change		no change				
Neuropilin-1 (NRP1): tunicamycin					changes			
Neuropilin-1 (NRP1): N150Q	increases	changes		increases		increases	no change	increases
Neuropilin-1 (NRP1): N522Q	no change	no change		no change				
Neuropilin-1 (NRP1): S612A	no change	no change		no change				
Neuropilin-1 (NRP1): N300Q	no change	no change		no change				
Neuropilin-1 (NRP1): N261Q	increases	changes		increases		increases	no change	increases

Reference: paper PMC6697747
